In PMC12102759 (2025) one finds screen value data, which are given here for 56 variants.

B1: AMOTL2 peptide 66-81 (Angiomotin-like protein 2), 16-mer library wild type / TNKS ANK (TNKS 12 ANK repeats, residues 174-649) (parent complex)
chain 1: LQQATRQEPQGQEHQG
chain 2: TGVPAVSGALRELLEACRNGDVSRVKRLVDAANVNAKDMAGRKSSPLHFAAGFGRKDVVEHLLQMGANVHARDDGGLIPLHNACSFGHAEVVSLLLCQGADPNARDNWNYTPLHEAAIKGKIDVCIVLLQHGADPNIRNTDGKSALDLADPSAKAVLTGEYKKDELLEAARSGNEEKLMALLTPLNVNCHASDGRKSTPLHLAAGYNRVRIVQLLLQHGADVHAKDKGGLVPLHNACSYGHYEVTELLLKHGACVNAMDLWQFTPLHEAASKNRVEVCSLLLSHGADPTLVNCHGKSAVDMAPTPELRERLTYEFKGHSLLQAAREADLAKVKKTLALEIINFKQPQSHETALHCAVASLHPKRKQVTELLLRKGANVNEKNKDFMTPLHVAAERAHNDVMEVLHKHGAKMNALDTLGQTALHRAALAGHLQTCRLLLSYGSDPSIISLQGFTAAQMGNEAVQQILSESTPIRTSD

The variants in this test derive from B1. Kind of test: proteomic peptide phage display deep mutational scan (ProP-PD DMS): M13 P8 16-mer library selected against immobilised GST-tagged bait for four days (rounds), NGS of the eluted pools per day and pseudo-replica; bait immobilised on MaxiSorp plates (10 µg), library pre-cleared on GST, 2 h binding at 4 °C, five washes; one round per day, days 1-4; value from days 2 and 3.
As for chain 1 IQQATRQEPQGQEHQG [chain 1 L1I], the screen value was 0.000531 average fractional NGS count over selection days 2 and 3 (reads of this peptide / all reads for the bait, averaged over …. To chain 1 WQQATRQEPQGQEHQG [chain 1 L1W] belongs 0.000562 average fractional NGS count over selection days 2 and 3 (reads of this peptide / all reads for the bait, averaged over ….

Take chain 1 GQQATRQEPQGQEHQG [chain 1 L1G]: the screen value was 0.000254 average fractional NGS count over selection days 2 and 3 (reads of this peptide / all reads for the bait, averaged over …. To chain 1 PQQATRQEPQGQEHQG [chain 1 L1P] belongs 0.000936 average fractional NGS count over selection days 2 and 3 (reads of this peptide / all reads for the bait, averaged over …; to chain 1 YQQATRQEPQGQEHQG [chain 1 L1Y], 0.000392 average fractional NGS count over selection days 2 and 3 (reads of this peptide / all reads for the bait, averaged over …. To chain 1 MQQATRQEPQGQEHQG [chain 1 L1M] belongs 0.000626 average fractional NGS count over selection days 2 and 3 (reads of this peptide / all reads for the bait, averaged over …; to chain 1 TQQATRQEPQGQEHQG [chain 1 L1T], 0.000919 average fractional NGS count over selection days 2 and 3 (reads of this peptide / all reads for the bait, averaged over …. As for chain 1 DQQATRQEPQGQEHQG [chain 1 L1D], the figure is 0.00194 average fractional NGS count over selection days 2 and 3 (reads of this peptide / all reads for the bait, averaged over …; as for chain 1 QQQATRQEPQGQEHQG [chain 1 L1Q], 0.00176 average fractional NGS count over selection days 2 and 3 (reads of this peptide / all reads for the bait, averaged over …. As to chain 1 HQQATRQEPQGQEHQG [chain 1 L1H], the screen value is 0.00276 average fractional NGS count over selection days 2 and 3 (reads of this peptide / all reads for the bait, averaged over …. As for chain 1 LQQATRQETQGQEHQG [chain 1 P9T], the figure is 0.000277 average fractional NGS count over selection days 2 and 3 (reads of this peptide / all reads for the bait, averaged over …; as for chain 1 LQQAMRQEPQGQEHQG [chain 1 T5M], 0.000134 average fractional NGS count over selection days 2 and 3 (reads of this peptide / all reads for the bait, averaged over …; as for chain 1 LQQAYRQEPQGQEHQG [chain 1 T5Y], 0.00023 average fractional NGS count over selection days 2 and 3 (reads of this peptide / all reads for the bait, averaged over …. To chain 1 LQQAWRQEPQGQEHQG [chain 1 T5W] belongs 0.000715 average fractional NGS count over selection days 2 and 3 (reads of this peptide / all reads for the bait, averaged over …; to chain 1 LQQAIRQEPQGQEHQG [chain 1 T5I], 0.000401 average fractional NGS count over selection days 2 and 3 (reads of this peptide / all reads for the bait, averaged over …; to chain 1 LQQAHRQEPQGQEHQG [chain 1 T5H], 0.00114 average fractional NGS count over selection days 2 and 3 (reads of this peptide / all reads for the bait, averaged over ….

Take chain 1 LQQADRQEPQGQEHQG [chain 1 T5D]: the screen value is 0.000166 average fractional NGS count over selection days 2 and 3 (reads of this peptide / all reads for the bait, averaged over …. With chain 1 LQQAQRQEPQGQEHQG [chain 1 T5Q], the screen value was 0.00116 average fractional NGS count over selection days 2 and 3 (reads of this peptide / all reads for the bait, averaged over ….

With chain 1 LQQAVRQEPQGQEHQG [chain 1 T5V], the screen value is 0.00996 average fractional NGS count over selection days 2 and 3 (reads of this peptide / all reads for the bait, averaged over …. As for chain 1 LQQAFRQEPQGQEHQG [chain 1 T5F], the figure is 0.00053 average fractional NGS count over selection days 2 and 3 (reads of this peptide / all reads for the bait, averaged over …; as for chain 1 LQQALRQEPQGQEHQG [chain 1 T5L], 0.00104 average fractional NGS count over selection days 2 and 3 (reads of this peptide / all reads for the bait, averaged over …; as for chain 1 LQQAGRQEPQGQEHQG [chain 1 T5G], 0.000124 average fractional NGS count over selection days 2 and 3 (reads of this peptide / all reads for the bait, averaged over ….

On to chain 1 LQQATRQEPQGQEHTG [chain 1 Q15T], for which the screen value is 0.000883 average fractional NGS count over selection days 2 and 3 (reads of this peptide / all reads for the bait, averaged over …. To chain 1 LQQATRQEPQGQEHEG [chain 1 Q15E] belongs 0.000569 average fractional NGS count over selection days 2 and 3 (reads of this peptide / all reads for the bait, averaged over …; to chain 1 LQQATRQEPQGQEHVG [chain 1 Q15V], 0.000269 average fractional NGS count over selection days 2 and 3 (reads of this peptide / all reads for the bait, averaged over …; to chain 1 LQQATRQEPQGQEHGG [chain 1 Q15G], 0.000723 average fractional NGS count over selection days 2 and 3 (reads of this peptide / all reads for the bait, averaged over ….

As to chain 1 LQQATRQEPQGQEHLG [chain 1 Q15L], the screen value was 0.0017 average fractional NGS count over selection days 2 and 3 (reads of this peptide / all reads for the bait, averaged over ….

Consider chain 1 LQQATRQEPQGQEHWG [chain 1 Q15W], for which the screen value is 0.000288 average fractional NGS count over selection days 2 and 3 (reads of this peptide / all reads for the bait, averaged over …. In the case of chain 1 LQQATRQEPQGQEHNG [chain 1 Q15N], the screen value was 0.00022 average fractional NGS count over selection days 2 and 3 (reads of this peptide / all reads for the bait, averaged over …. As for chain 1 LQQATRQEPQGQEHMG [chain 1 Q15M], the figure is 0.00112 average fractional NGS count over selection days 2 and 3 (reads of this peptide / all reads for the bait, averaged over …. To chain 1 LQQATRQEPQGQEHIG [chain 1 Q15I] belongs 0.00255 average fractional NGS count over selection days 2 and 3 (reads of this peptide / all reads for the bait, averaged over …; to chain 1 LQQATRQEPQGQEHPG [chain 1 Q15P], 0.000799 average fractional NGS count over selection days 2 and 3 (reads of this peptide / all reads for the bait, averaged over …. As to chain 1 LQQATRQEPQGQEHAG [chain 1 Q15A], the screen value is 0.00403 average fractional NGS count over selection days 2 and 3 (reads of this peptide / all reads for the bait, averaged over …. To chain 1 LQQATRAEPQGQEHQG [chain 1 Q7A] belongs 0.000124 average fractional NGS count over selection days 2 and 3 (reads of this peptide / all reads for the bait, averaged over …; to chain 1 LQQATRTEPQGQEHQG [chain 1 Q7T], 0.000305 average fractional NGS count over selection days 2 and 3 (reads of this peptide / all reads for the bait, averaged over …. To chain 1 LQQATRLEPQGQEHQG [chain 1 Q7L] belongs 0.00305 average fractional NGS count over selection days 2 and 3 (reads of this peptide / all reads for the bait, averaged over …; to chain 1 LQQATRMEPQGQEHQG [chain 1 Q7M], 0.00184 average fractional NGS count over selection days 2 and 3 (reads of this peptide / all reads for the bait, averaged over …. To chain 1 LQQATRYEPQGQEHQG [chain 1 Q7Y] belongs 0.000137 average fractional NGS count over selection days 2 and 3 (reads of this peptide / all reads for the bait, averaged over …; to chain 1 LQQATRPEPQGQEHQG [chain 1 Q7P], 0.000611 average fractional NGS count over selection days 2 and 3 (reads of this peptide / all reads for the bait, averaged over …; to chain 1 LQQATRFEPQGQEHQG [chain 1 Q7F], 0.000322 average fractional NGS count over selection days 2 and 3 (reads of this peptide / all reads for the bait, averaged over …. On to chain 1 LQQATRNEPQGQEHQG [chain 1 Q7N], for which the screen value was 0.000208 average fractional NGS count over selection days 2 and 3 (reads of this peptide / all reads for the bait, averaged over ….

Consider chain 1 LQPATRQEPQGQEHQG [chain 1 Q3P], for which the screen value is 0.000624 average fractional NGS count over selection days 2 and 3 (reads of this peptide / all reads for the bait, averaged over ….

Turning to chain 1 LQAATRQEPQGQEHQG [chain 1 Q3A], the screen value is 0.0023 average fractional NGS count over selection days 2 and 3 (reads of this peptide / all reads for the bait, averaged over …. To chain 1 LQHATRQEPQGQEHQG [chain 1 Q3H] belongs 0.00741 average fractional NGS count over selection days 2 and 3 (reads of this peptide / all reads for the bait, averaged over …; to chain 1 LQVATRQEPQGQEHQG [chain 1 Q3V], 0.000386 average fractional NGS count over selection days 2 and 3 (reads of this peptide / all reads for the bait, averaged over …; to chain 1 LQFATRQEPQGQEHQG [chain 1 Q3F], 0.000606 average fractional NGS count over selection days 2 and 3 (reads of this peptide / all reads for the bait, averaged over …. Consider chain 1 LQGATRQEPQGQEHQG [chain 1 Q3G], for which the screen value was 0.000192 average fractional NGS count over selection days 2 and 3 (reads of this peptide / all reads for the bait, averaged over ….

chain 1 LQSATRQEPQGQEHQG [chain 1 Q3S]: the screen value is 0.000813 average fractional NGS count over selection days 2 and 3 (reads of this peptide / all reads for the bait, averaged over ….

For chain 1 LQYATRQEPQGQEHQG [chain 1 Q3Y], the screen value is 0.000305 average fractional NGS count over selection days 2 and 3 (reads of this peptide / all reads for the bait, averaged over …. To chain 1 LQWATRQEPQGQEHQG [chain 1 Q3W] belongs 0.000779 average fractional NGS count over selection days 2 and 3 (reads of this peptide / all reads for the bait, averaged over …; to chain 1 LQLATRQEPQGQEHQG [chain 1 Q3L], 0.000335 average fractional NGS count over selection days 2 and 3 (reads of this peptide / all reads for the bait, averaged over …; to chain 1 LQTATRQEPQGQEHQG [chain 1 Q3T], 0.000102 average fractional NGS count over selection days 2 and 3 (reads of this peptide / all reads for the bait, averaged over …. chain 1 LQQATRQEPHGQEHQG [chain 1 Q10H]: the screen value is 0.000277 average fractional NGS count over selection days 2 and 3 (reads of this peptide / all reads for the bait, averaged over …. As for chain 1 LQQATRQEPDGQEHQG [chain 1 Q10D], the figure is 0.00111 average fractional NGS count over selection days 2 and 3 (reads of this peptide / all reads for the bait, averaged over …; as for chain 1 LQQATRQEPYGQEHQG [chain 1 Q10Y], 0.00045 average fractional NGS count over selection days 2 and 3 (reads of this peptide / all reads for the bait, averaged over …. To chain 1 LQQATRQEPIGQEHQG [chain 1 Q10I] belongs 0.000713 average fractional NGS count over selection days 2 and 3 (reads of this peptide / all reads for the bait, averaged over ….
